Biological target: 14-3-3ζ (UniProt P63104)
Test: anti-HA co-IP, Myc Western blot
Conditions: reference: wild-type Myc-Stat3 (688–770); sites S727

## Stat3 C-terminal region, 688-770 (from UniProt P40763) S727A
  binding against the reference: lost
